Results as given in US20030125296.

What was measured:
[1] = tested on: Thioredoxin (Trx) alone, expressed in E. coli from a pET32 vector [thioredoxin: P0AA25]
[2] = tested on: E. coli-expressed NFκB p50
[3] = tested on: Trx-IRDBP-1 fusion protein (His6-tagged thioredoxin fusion of the 1503 bp coding region of the cDNA SEQ ID NO: 44)
[4] = tested on: T1, RPRAATF substrate of glycogen synthase kinase 3β
T1 sequence: RPRAATF

[5] = tested on: IRDBP-1 expressed from pCR IRDBP-1 in transfected COS 7 cells
IRDBP-1 expressed from pCR IRDBP-1 in transfected COS 7 cells, sequence (chain, as listed by the source): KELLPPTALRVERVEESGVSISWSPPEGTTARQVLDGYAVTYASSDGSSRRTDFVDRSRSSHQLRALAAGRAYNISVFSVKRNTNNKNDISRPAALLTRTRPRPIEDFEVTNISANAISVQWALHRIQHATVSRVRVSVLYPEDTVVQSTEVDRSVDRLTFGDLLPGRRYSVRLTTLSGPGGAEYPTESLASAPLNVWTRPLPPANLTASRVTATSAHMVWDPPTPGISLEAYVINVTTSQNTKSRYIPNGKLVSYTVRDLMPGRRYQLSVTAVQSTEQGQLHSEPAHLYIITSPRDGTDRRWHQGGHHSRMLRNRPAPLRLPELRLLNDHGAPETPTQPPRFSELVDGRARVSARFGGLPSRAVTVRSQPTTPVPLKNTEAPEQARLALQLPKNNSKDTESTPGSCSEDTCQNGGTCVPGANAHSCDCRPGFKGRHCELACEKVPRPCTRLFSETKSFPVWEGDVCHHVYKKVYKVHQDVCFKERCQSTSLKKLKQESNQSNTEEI

Thioredoxin (Trx) alone, expressed in E. coli from a pET32 vector [thioredoxin: P0AA25], sequence (P0AA25 whole entry): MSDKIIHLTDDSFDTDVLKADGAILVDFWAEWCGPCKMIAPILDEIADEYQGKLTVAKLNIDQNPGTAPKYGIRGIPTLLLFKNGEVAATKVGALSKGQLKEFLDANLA
Trx-IRDBP-1 fusion protein (His6-tagged thioredoxin fusion of the 1503 bp coding region of the cDNA SEQ ID NO: 44), sequence (chain, as listed by the source): as the sequence (chain, as listed by the source) above

| Substance | in vitro phosphorylation with [γ-32P] ATP, SDS-PAGE [1] | in vitro phosphorylation with [γ-32P] ATP, SDS-PAGE [2] | in vitro phosphorylation with [γ-32P] ATP, SDS-PAGE [3] | in vitro phosphorylation with [γ-32P] ATP [4] | IRDBP-1-induced IRE transcription [5] | IRDBP-1-induced IRE activity (IRE-mediated transcription) [5] |
| --- | --- | --- | --- | --- | --- | --- |
| Akt (endogenous, COS 7 cells) | Akt and Erk did not phosphorylate the controls of Trx alone, and the p50 subunit of NFκB | Akt and Erk did not phosphorylate the controls of Trx alone, and the p50 subunit of NFκB | Akt and Erk Trx-IRDBP-1 were capable of phosphorylating Trx-IRDBP-1 | Akt phosphorylated the RPRAATF substrate of glycogen synthase kinase 3β, used as a positive control | – | – |
| Erk2 (pUSEamp expression vector, cotransfected) | – | – | – | – | Erk2 decreased IRDBP-1-induced IRE transcription by 45±4% (lane 5 vs. lane 3) | – |
| Erk (Erk1/2; endogenous, COS 7 cells) | Akt and Erk did not phosphorylate the controls of Trx alone, and the p50 subunit of NFκB | Akt and Erk did not phosphorylate the controls of Trx alone, and the p50 subunit of NFκB | Akt and Erk Trx-IRDBP-1 were capable of phosphorylating Trx-IRDBP-1 | – | – | – |
| wild-type Akt1 (pUSEamp expression vector, cotransfected) | – | – | – | – | – | Wild-type Akt1 expression, like Akt myr, stimulated IRDBP-1-induced IRE activity to the same extent as the addition of insulin (lane 7 vs. lane 4) |
